pKd: −log10 of the molar value.
Molecular target: CH1 domain of the murine IgG1 heavy chain, oxidized (internal disulfide bridge formed) (murine) [IgG part: P01868]
Assay: other fluorescence titration

CL domain of the murine MAK33 κ light chain (from UniProt P01837 1-107) (domain or fragment)
pKd: 5.21

Source: paper PMC2908990
